According to the supplement of paper PMC10567573:
± gives the standard deviation.

Assay: protein stability index of a GFP-peptide fusion (GPS, HEK-293T) (PSI 1-6); higher = more stable
[1] = treatment: DMSO, c terminus: a fixed tail appended
[2] = treatment: MLN4924 1 uM, 8 h, c terminus: a fixed tail appended
[3] = treatment: DMSO, c terminus: native
[4] = treatment: MLN4924 1 uM, 8 h, c terminus: native
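Note: 24-mer peptide tiles fused after GFP, lentivirally expressed, FACS-sorted into six equal bins by GFP/DsRed ratio, decoded by Illumina sequencing, PSI is the read-weighted mean bin number.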

Row | Sequence | protein stability index [1] | protein stability index [2] | protein stability index [3] | protein stability index [4]
1 | RERKKNWGGQEDREPAGRWKEGRP [PBXIP1] | 4.49 ± 0.24 | 4.73 ± 0.13 |  | 
2 | FNEMSAQGLRPRTVSSPIPYTPSP [CCDC6] | 4.02 ± 0.3 | 4.12 ± 0.23 |  | 
3 | EEKEAWYREESDSLGQDLRRLRQE [DAPK3] | 5.28 ± 0.31 | 5.35 ± 0.17 |  | 
4 | NVHATTATGDTALTYACENGHTDV [ANKRD17] | 4.82 ± 0.33 | 4.88 ± 0.19 |  | 
5 | QSKPLLSAFADIIHSLKESGQLWL [FADS1] | 2.8 ± 0.4 | 2.87 ± 0.68 |  | 
6 | ELSAIGSDTTPLPSWAALNSSTWG [SNX8] | 2.94 ± 0.36 | 2.75 ± 0.18 |  | 
7 | RVIEVLPRGATAAVLAPDSSNASS [SEPHS2] | 4.31 ± 0.19 | 4.42 ± 0.18 |  | 
8 | SEADASHCIQQILESVNHCHLNGI [CAMK2D] | 2.98 ± 0.27 | 2.89 ± 0.33 |  | 
9 | QFPYVEFTGRDSITCLTCQGTGYI [TMEM106C] | 2.93 ± 0.47 | 3.09 ± 0.52 |  | 
10 | KAEILESVIKNYEDHFPLLFSEAS [MAGEA10] | 3.06 ± 0.38 | 3.19 ± 0.51 |  | 
11 | DGIDRWIKEIDEHAPGVPKILVGN [RAB40B] | 3.68 ± 0.28 | 3.85 ± 0.33 |  | 
12 | APTADDDDDDHDDHEDNDKMNDSE [NOL4L] | 5.53 ± 0.2 | 5.54 ± 0.28 |  | 
13 | PGVFVLLACGTMSSTCGQLASYPL [SLC25A25] | 3.18 ± 0.3 | 2.66 ± 0.61 |  | 
14 | IKMAMVACGDAFTVAIGAESEVYS [NEK8] | 2.57 ± 0.78 | 2.57 ± 0.5 |  | 
15 | HTTRSSLRGPRERAPSERSGPAAS [DVL3] | 5.15 ± 0.24 | 4.75 ± 0.31 |  | 
16 | RKLRKTVNGDGSRENGNNSSDKVR [PHTF1] | 4.96 ± 0.088 | 4.99 ± 0.18 |  | 
17 | DVLSCEYYSPILDQWTPIAAMLRG [KLHL13] | 2.2 ± 0.46 | 2.36 ± 0.23 |  | 
18 | GNRILDEKEQEKMRQDLEEERVAL [PKD2L1] | 5.24 ± 0.74 | 5.57 ± 0.27 |  | 
19 | WLHALHLRQKGNRNTHKDLLRFAQ [FEM1B] | 2.44 ± 0.52 | 2.35 ± 0.15 |  | 
20 | ITESYQTLHPISSEELLSLKYEND [ETS1] | 4.81 ± 0.095 | 4.85 ± 0.22 |  | 
21 | PGEQGGGKLVLSSLPKRLCLVCGD [ESRRA] | 2.79 ± 0.19 | 3.25 ± 0.29 |  | 
22 | HGHMCIAFELLGKNTFEFLKENNF [CLK3] | 2.55 ± 0.87 | 2.92 ± 1.3 |  | 
23 | LASLPLKADTKGFCNISLFEDLPL [PLAGL1] | 2.33 ± 0.19 | 2.43 ± 0.1 |  | 

Row | Sequence | protein stability index [1] | protein stability index [2] | protein stability index [3] | protein stability index [4]
24 | KREEEALEERRLSRGEIPTLQRS [PKD2L1] |  |  | 5.33 ± 0.22 | 5.23 ± 0.28
25 | ARDCFATGRHYWEVDVQEAGAGWW [TRIM14] | 2.42 ± 0.22 | 2.41 ± 0.3 |  | 
26 | GRECQPRWETSSWSECSRTCGEGY [ADAMTSL2] | 3.78 ± 0.15 | 3.49 ± 0.092 |  | 
27 | KRCINLWKYALDMQQSNLDPLSPM [FEM1C] | 2.33 ± 0.48 | 2.07 ± 0.38 |  | 
28 | LEPMKSRAPQLHLEYRFYEQLGSG [CSNK1G3] | 2.91 ± 0.2 | 2.63 ± 0.47 |  | 
29 | QDHFHVFVGDLSPEITTEDIKAAF [TIA1] | 2.73 ± 0.54 | 3 ± 0.33 |  | 
30 | WVFGTSFLPFLLCAVLLSAVQAQA [FADS1] | 3.09 ± 0.6 | 2.51 ± 0.12 |  | 
31 | PVTKPLFPSAGQAQAAVQGPVGTD [ZNF207] | 5.15 ± 0.17 | 5.05 ± 0.11 |  | 
32 | LLALAGAVQRLEGALWGLQAQAVQ [SCARA5] | 3.33 ± 0.29 | 3.48 ± 0.14 |  | 
33 | NKILQVFWEEHKASLGREESRAPS [CBY2] | 3.02 ± 0.13 | 3.09 ± 0.22 |  | 
34 | AQLYTLWVTFQVLLYTSLPDFCHK [DHCR7] | 2.88 ± 0.13 | 3.13 ± 0.18 |  | 
35 | HINSISVNSDYETYMSADDLRINL [PPP2R2B] | 3.15 ± 0.46 | 3.2 ± 0.54 |  | 
36 | VAQTGILWLLMNNCFLNLSPRKP [GAGE1] |  |  | 2.71 ± 0.17 | 2.82 ± 1.2
37 | EAGGKQKAVEEELDAEDRPAWNSK [SLC6A17] | 5.62 ± 0.16 | 5.57 ± 0.15 |  | 
38 | NGTAWTYHSQDELGGFSHWGRLTS [PKD2L1] | 2.38 ± 0.4 | 2.6 ± 0.2 |  | 
39 | DPKKLLTQYFVQENYLEYRQVPGS [MAGEA6] | 3.12 ± 0.1 | 3 ± 0.39 |  | 
40 | LAPAGQTSEESRPRLSQLSVTDVT [TNXB] | 4.64 ± 0.68 | 5.13 ± 0.31 |  | 
41 | PAPEAESKQTEKDPGVQELEALID [EFHC1] | 5.51 ± 0.2 | 5.57 ± 0.17 |  | 
42 | EADENENITVVKGIRLSENVIDRM [CHCHD3] | 4.75 ± 0.17 | 4.7 ± 0.11 |  | 
43 | RDLKTQNILLDKHRMVVKIGDFGI [NEK8] | 2.24 ± 0.18 | 2.24 ± 0.16 |  | 
44 | EPELQVGIDIMKTSFPGRGSIPEF [AASDHPPT] | 3.67 ± 0.22 | 3.61 ± 0.29 |  | 
45 | SAESMVEYGTCMCLVKGIFYHCSN [SPRY1] | 2.65 ± 0.42 | 2.55 ± 0.34 |  | 
46 | LEHGADPTVKDLIGGFTALHYAAM [ASB7] | 2.5 ± 0.45 | 2.54 ± 0.38 |  | 

Row | Sequence | protein stability index [1] | protein stability index [2] | protein stability index [3] | protein stability index [4]
47 | QTLRQELSLPYLPSGTPELEVPKP [CHIT1] | 4.7 ± 0.15 | 4.69 ± 0.36 |  | 
48 | ESGPSAEKYSVATQLFIGGVTGWC [FUNDC2] | 2.14 ± 0.29 | 1.97 ± 0.38 |  | 
49 | LPPCLLPLSPPTAPDRATAVATAS [TRIB3] | 4.45 ± 0.31 | 4.35 ± 0.26 |  | 
50 | GRCLEVEMSKDANFGLRLVVQRCS [GALNT9] | 2.27 ± 0.15 | 2 ± 0.41 |  | 
51 | SQVPTGEVFYYSCEYNFVSPSKSF [CFHR2] | 2.59 ± 0.85 | 2.08 ± 0.26 |  | 
52 | GPAASEGAEQPPDLHCVLVTNPHS [GADD45A] | 4.97 ± 0.14 | 4.95 ± 0.1 |  | 
53 | MDADEGQDMSQVSGKESPPVSDTP [IKZF1] | 5.35 ± 0.28 | 5.28 ± 0.6 |  | 
54 | QQTKLEAEKLKVQALKDRGLSIPR [LSM1] | 4.12 ± 0.16 | 4.21 ± 0.075 |  | 
55 | EDTHQSPEPEDEPGGPGAMTESLE [RSPH3] | 5.43 ± 0.38 | 5.64 ± 0.14 |  | 
56 | FFFDRNPGAFGTILTFLRAGKLRL [KCNG1] | 2.48 ± 1.3 | 2.07 ± 0.11 |  | 
57 | TKILVVNAAYFVGKWMKKFPESET [SERPINB5] | 2.56 ± 0.6 | 2.53 ± 0.47 |  | 
58 | EAGAPGEEDIQGPTKADTEKWAEG [CHGB] | 5.64 ± 0.29 | 5.59 ± 0.32 |  | 
59 | PYSFIEFDTFIQKTKKLYIDSRAR [SEC22B] | 2.38 ± 0.12 | 2.41 ± 0.25 |  | 
60 | QRSVSDVASGSTPAPALCCAPYDS [IRX6] | 4.8 ± 0.34 | 4.94 ± 0.085 |  | 
61 | NTFVRYLLKRIKKCCGMRNTDVSM [KCNK9] | 3.38 ± 0.59 | 3 ± 0.35 |  | 
62 | ELIDNLKEAQYIRTELVEQAFRAI [PCMTD2] | 2.54 ± 0.32 | 2.29 ± 0.44 |  | 
63 | TLLKKISEASKAFQMEKIEHGYEN [TRIM55] | 2.3 ± 0.26 | 2.4 ± 0.15 |  | 
64 | MSGQTLTDRIAAAQYSVTGSAVAR [SNAP91] | 4 ± 0.19 | 3.98 ± 0.2 |  | 
65 | MNPYNAVLTKKFQVTMRGLLSCLS [FBXO39] | 2.7 ± 0.75 | 2.72 ± 0.23 |  | 
66 | ADDHRYKFADNKWSVTGKAEPAMP [TBX5] | 4.04 ± 0.17 | 4.2 ± 0.15 |  | 
67 | QLENEQSQENSINPIQKEEDEGVD [SPANXN3] | 5.56 ± 0.22 | 5.67 ± 0.2 |  | 
68 | ERVVINISGLRFETQLKTLAQFPN [KCNA1] | 2.47 ± 0.29 | 2.32 ± 0.55 |  | 
69 | LFLFGYKFSGLYILSFTVIMVGFI [SLC35F2] | 3.64 ± 0.12 | 3.18 ± 0.41 |  | 

Row | Sequence | protein stability index [1] | protein stability index [2] | protein stability index [3] | protein stability index [4]
70 | KPAFIGKTNLDGMITVQLPEVPAN [PTPRD] | 3.77 ± 0.16 | 3.81 ± 0.19 |  | 
71 | MSGDGATEQAAEYVPEKVKKAEKK [CSTF3] | 5.52 ± 0.18 | 5.65 ± 0.15 |  | 
72 | ARAFAEKNGLSFIETSALDSTNVE [RAB11A] | 4.28 ± 0.41 | 4.24 ± 0.44 |  | 
73 | AAPAAKTRKQAAKKVAPLMAKAIR [ELOA2] | 3.78 ± 0.24 | 4.16 ± 0.21 |  | 
74 | KELEARVRKPAEAERYKLERLAEA [FLOT1] | 4.88 ± 0.29 | 4.95 ± 0.16 |  | 
75 | EMRISESAASGARFPLDSAQDPDV [PCDHGC5] | 5.38 ± 0.21 | 5.35 ± 0.16 |  | 
76 | QRISCFQSTVKCLTVLQRLDVWLS [WDR41] | 2.45 ± 0.35 | 2.41 ± 0.44 |  | 
77 | QELDIKKNERLWLLDDSKTWWRVR [NCK2] | 2.37 ± 0.14 | 2.61 ± 0.28 |  | 
78 | TEGFPPGGGNARATGMFLQYTVPG [ZFYVE21] | 3.11 ± 0.16 | 3.07 ± 0.27 |  | 
79 | VAQRSGCEERWLVIDRKVYNISEF [FADS1] | 2.11 ± 0.084 | 2.12 ± 0.32 |  | 
80 | TPVSYRMAKTLVFSKVKTSLGLDH [ACSBG2] | 2.33 ± 0.33 | 2.41 ± 0.18 |  | 
81 | EEEEAAMYEEEMEREEITTKKRKL [FAM50A] | 5.66 ± 0.32 | 5.38 ± 0.34 |  | 
82 | GIVVESNHDSHMAKERAHSTASHS [PDZK1] |  | 4.44 ± 0.21 |  | 
83 | NSVNDQTKILVVNAAYFVGKWMKK [SERPINB5] | 2.3 ± 0.26 | 2.48 ± 0.5 |  | 
84 | ETNEEDKTLQEIYRKYRKLIESEL [FBXO39] | 3.02 ± 0.44 | 3.4 ± 0.34 |  | 
85 | RGEVLPEEITEESLEESVGKPLYL [INTS3] | 5.17 ± 0.38 | 5.08 ± 0.35 |  | 
86 | AFCNGQKLQVSQQEDITKSLLVTE [IMPA1] | 3.69 ± 0.12 | 3.73 ± 0.27 |  | 
87 | SEAKLYGRCELARVLHDFGLDGYR [SPACA3] | 2.23 ± 0.15 | 2.42 ± 0.13 |  | 
88 | MTDQQAEARSYLSEEMIAEFKAAF [TNNC2] | 4.22 ± 0.13 | 4.25 ± 0.16 |  | 
89 | TLPYPVKIKVRFSFFLQIYLIMIF [HACD3] | 2.86 ± 0.94 | 2.84 ± 0.72 |  | 
